According to IntAct's records for PubMed 23085078:

B1: Proline-rich nuclear receptor coactivator 2 (Homo sapiens), Q9NPJ4-1 (parent)
chain: MGGGERYNIPAPQSRNVSKNQQQLNRQKTKEQNSQMKIVHKKKERGHGYNSSAAAWQAMQNGGKNKNFPNNQSWNSSLSGPRLLFKSQANQNYAGAKFSEPPSPSVLPKPPSHWVPVSFNPSDKEIMTFQLKTLLKVQV
partner: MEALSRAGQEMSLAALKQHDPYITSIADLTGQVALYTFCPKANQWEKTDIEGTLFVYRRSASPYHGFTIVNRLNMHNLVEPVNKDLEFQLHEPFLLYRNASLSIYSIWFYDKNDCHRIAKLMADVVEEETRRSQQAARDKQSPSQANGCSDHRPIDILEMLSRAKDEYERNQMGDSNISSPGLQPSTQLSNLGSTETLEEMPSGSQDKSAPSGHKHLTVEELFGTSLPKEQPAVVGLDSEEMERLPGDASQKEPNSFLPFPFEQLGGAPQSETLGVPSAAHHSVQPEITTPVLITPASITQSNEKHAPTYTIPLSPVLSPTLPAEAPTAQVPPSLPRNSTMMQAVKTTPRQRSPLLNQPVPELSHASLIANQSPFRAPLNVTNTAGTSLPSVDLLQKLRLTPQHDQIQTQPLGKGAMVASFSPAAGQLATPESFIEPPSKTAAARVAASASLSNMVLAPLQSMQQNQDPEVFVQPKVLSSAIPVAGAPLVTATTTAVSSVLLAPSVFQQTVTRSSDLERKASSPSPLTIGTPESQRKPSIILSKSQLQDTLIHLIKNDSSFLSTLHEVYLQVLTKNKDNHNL

Variants of: B1
Details: with dcp1a_human DCP1A

| effect of a mutation on the interaction | Variant |
| --- | --- |
| disrupting interaction strength | K109A |
| disrupting interaction strength | W114A |
| decreasing interaction strength | P108A |
